Reference: paper PMC6030200 (2018)

T1: recombinant human integrin α6β4 (human, UniProt P23229;P16144)
T1 chain 1: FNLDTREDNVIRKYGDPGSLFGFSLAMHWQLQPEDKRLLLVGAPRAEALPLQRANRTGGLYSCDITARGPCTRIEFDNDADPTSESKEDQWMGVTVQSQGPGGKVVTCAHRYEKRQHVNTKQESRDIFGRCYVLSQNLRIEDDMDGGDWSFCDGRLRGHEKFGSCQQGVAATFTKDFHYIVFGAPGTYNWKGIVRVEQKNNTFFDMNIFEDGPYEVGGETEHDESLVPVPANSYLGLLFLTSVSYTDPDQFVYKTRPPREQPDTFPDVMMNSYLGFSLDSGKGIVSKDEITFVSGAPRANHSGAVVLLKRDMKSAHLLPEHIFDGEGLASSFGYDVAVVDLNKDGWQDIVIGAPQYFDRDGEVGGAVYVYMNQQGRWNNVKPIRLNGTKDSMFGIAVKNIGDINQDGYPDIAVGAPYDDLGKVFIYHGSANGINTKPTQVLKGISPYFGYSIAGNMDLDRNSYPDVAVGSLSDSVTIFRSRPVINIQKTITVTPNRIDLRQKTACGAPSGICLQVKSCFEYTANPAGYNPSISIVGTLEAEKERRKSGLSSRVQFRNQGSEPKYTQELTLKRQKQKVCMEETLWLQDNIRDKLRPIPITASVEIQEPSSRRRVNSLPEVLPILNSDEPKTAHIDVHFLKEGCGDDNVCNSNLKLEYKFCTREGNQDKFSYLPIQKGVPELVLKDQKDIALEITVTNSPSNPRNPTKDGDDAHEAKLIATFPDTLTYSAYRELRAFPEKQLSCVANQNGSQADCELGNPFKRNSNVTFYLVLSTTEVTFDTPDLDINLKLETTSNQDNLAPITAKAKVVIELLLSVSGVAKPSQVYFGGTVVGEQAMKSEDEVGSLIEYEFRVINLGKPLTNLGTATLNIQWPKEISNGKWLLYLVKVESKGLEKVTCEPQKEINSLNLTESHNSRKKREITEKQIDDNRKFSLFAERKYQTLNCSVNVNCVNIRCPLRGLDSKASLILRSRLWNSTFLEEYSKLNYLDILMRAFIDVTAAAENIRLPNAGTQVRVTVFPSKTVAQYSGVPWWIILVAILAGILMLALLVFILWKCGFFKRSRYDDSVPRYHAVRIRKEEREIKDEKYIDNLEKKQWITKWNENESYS
T1 chain 2: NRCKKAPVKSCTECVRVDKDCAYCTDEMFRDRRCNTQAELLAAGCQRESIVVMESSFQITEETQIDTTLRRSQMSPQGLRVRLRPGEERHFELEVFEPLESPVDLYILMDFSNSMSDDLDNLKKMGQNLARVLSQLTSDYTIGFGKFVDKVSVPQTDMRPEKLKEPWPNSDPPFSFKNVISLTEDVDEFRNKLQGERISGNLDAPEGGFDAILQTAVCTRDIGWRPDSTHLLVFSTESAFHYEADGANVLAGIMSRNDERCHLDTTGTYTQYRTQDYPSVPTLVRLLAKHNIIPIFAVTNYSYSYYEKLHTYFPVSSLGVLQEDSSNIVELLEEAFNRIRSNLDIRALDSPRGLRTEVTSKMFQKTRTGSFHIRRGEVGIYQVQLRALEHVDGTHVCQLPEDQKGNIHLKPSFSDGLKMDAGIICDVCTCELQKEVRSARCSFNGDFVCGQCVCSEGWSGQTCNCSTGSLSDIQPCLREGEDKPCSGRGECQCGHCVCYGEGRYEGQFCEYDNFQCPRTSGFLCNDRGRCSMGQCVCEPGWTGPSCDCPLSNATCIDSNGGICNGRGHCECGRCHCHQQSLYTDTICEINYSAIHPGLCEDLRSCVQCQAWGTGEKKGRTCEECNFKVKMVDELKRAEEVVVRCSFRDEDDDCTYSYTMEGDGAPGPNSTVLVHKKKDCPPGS

B1: HAdV-5 penton base protein, recombinant, soluble (natural protein)
chain: MRRAAMYEEGPPPSYESVVSAAPVAAALGSPFDAPLDPPFVPPRYLRPTGGRNSIRYSELAPLFDTTRVYLVDNKSTDVASLNYQNDHSNFLTTVIQNNDYSPGEASTQTINLDDRSHWGGDLKTILHTNMPNVNEFMFTNKFKARVMVSRLPTKDNQVELKYEWVEFTLPEGNYSETMTIDLMNNAIVEHYLKVGRQNGVLESDIGVKFDTRNFRLGFDPVTGLVMPGVYTNEAFHPDIILLPGCGVDFTHSRLSNLLGIRKRQPFQEGFRITYDDLEGGNIPALLDVDAYQASLKDDTEQGGGGAGGSNSSGSGAEENSNAAAAAMQPVEDMNDHAIRGDTFATRAEEKRAEAEAAAEAAAPAAQPEVEKPQKKPVIKPLTEDSKKRSYNLISNDSTFTQYRSWYLAYNYGDPQTGIRSWTLLCTPDVTCGSEQVYWSLPDMMQDPVTFRSTRQISNFPVVGAELLPVHSKSFYNDQAVYSQLIRQFTSLTHVFNRFPENQILARPPAPTITTVSENVPALTDHGTLPLRNSIGGVQRVTITDARRRTCPYVYKALGIVSPRVLSSRTF
B2: HAdV-40 penton base protein, recombinant, soluble (natural protein)
chain: MRRAVGVPPVMAYAEGPPPSYESVMETADLPATLQALHVPPRYLGPTEGRNSIRYSELAPLYDTTRVYLVDNKSADIASLNYQNDHSNFQTTVVQNNDFTPTEAGTQTINFDDRSRWGGDLKTILRTNMPNINEFMSTNKFRARVMVEKVNRKTNAPRYEWFEFTLPEGNYSETMTIDLMNNAIVDNYLAVGRQNGVLESDIGVKFDTRNFRLGWDPVTKLVMPGVYTNEAFHPDIVLLPGCGVDFTQSRLNNLLGIRKRMPFQKGFQIMYEDLEGGNIPALLDVEKYEASIKEAQEIRGADFKPNPQDLEIVPVEKDSKERSYNLLEGDKNNTAYRSWFLAYNYGDAEKGVKSWTLLTTTDVTCGSQQVYWSLPDMMQDPVTFRPSTQVSNYPVVGVELLPVHAKSFYNEQAVYSQLIRQSTALTHIFNRFPENQILVRPPAPTITTVSENVPALTDHGTLPLRSSISGVQRVTITDARRRTCPYVHKALGIVAPKVLSSRTF
B3: HAdV-41 penton base protein, recombinant, soluble (natural protein)
chain: MRRAVGVPPVMAYAEGPPPSYESVMGSADSPATLEALYVPPRYLGPTEGRNSIRYSELAPLYDTTRVYLVDNKSADIASLNYQNDHSNFQTTVVQNNDFTPAEAGTQTINFDERSRWGADLKTILRTNMPNINEFMSTNKFKARLMVEKKNKETGLPRYEWFEFTLPEGNYSETMTIDLMNNAIVDNYLEVGRQNGVLESDIGVKFDTRNFRLGWDPVTKLVMPGVYTNEAFHPDIVLLPGCGVDFTQSRLSNLLGIRKRLPFQEGFQIMYEDLEGGNIPALLDVAKYEASIQKAKEEGKEIGDDTFATRPQDLVIEPVAKDSKNRSYNLLPNDQNNTAYRSWFLAYNYGDPKKGVQSWTLLTTADVTCGSQQVYWSLPDMMQDPVTFRPSTQVSNYPVVGVELLPVHAKSFYNEQAVYSQLIRQSTALTHVFNRFPENQILVRPPAPTITTVSENVPALTDHGTLPLRSSISGVQRVTITDARRRTCPYVHKALGIVAPKVLSSRTF

Experiments:
Assay in all cases: SPR
[1] = biological target: T1, recombinant human integrin α6β4
[2] = biological target: T2, recombinant human integrin α6β1 (human, UniProt P23229;P05556)
[3] = biological target: T1, recombinant human integrin α6β4
[4] = biological target: T2, recombinant human integrin α6β1; remark: listed apart in the source

Binder	Kd [1] [nM]	Kd [2] [nM]	koff [3] [s⁻¹]	koff [4] [s⁻¹]
B1	95	1560	0.0045	0.0059
B2	32.7	426	0.0049	
B3	41.2	473	0.022	0.011
